{
  "source": "paper PMC7281375",
  "about": "“Therapeutic Targeting of Pancreatic Cancer via EphA2 Dimeric Agonistic Agents” (Pharmaceuticals, 2020)",
  "molecules": {"B1": {"name": "ephrinA1-Fc: dimeric natural ligand of EphA2, Fc dimerized ephrinA1 (protein)", "chain": "DRHTVFWNSSNPKFRNEDYTIHVQLNDYVDIICPHYEDHSVADAAMEQYILYLVEHEEYQLCQPQSKDQVRWQCNRPSAKHGPEKLSEKFQRFTPFTLGKEFKEGHSYYYISKPIHQHEDRCLRLKVTVSGKITHSPQAHDNPQEKRLAADDPEVRVLHSIGHS", "modifications": "left off: Fc, end not stated, kept"}},
  "key": {"EphA2 receptor [1]": {"system": "EphA2 receptor", "experiment": "EphA2 degradation, Western blot of BxPC3 cell lysates", "format": "cell-based", "details": "BxPC3 cells, 1 h, several concentrations", "protocol": "In order to evaluate the ability of each agent to activate the receptor, we tested them in various cellular assays as reported below. Because receptor activation causes its internalization and degradation, we opted to monitor the ability of each agent to reduce EphA2 levels over time, after exposure of cells to test ligands. […] For these experiments we initially treated HCT116 cells with 10 μM concentration of each agent for 2.5 h, and cells lysates were probed for total EphA2 using anti-EphA2 antibody (1C11A12; Thermo Fisher Scientific) (Figure 3a). […] Because these agents had optimized side chains, we expected these to work at much lower concentrations compared to dimeric agents derived from 135B12 (Table 1).\nFigure 3 Dimeric and tetrameric EphA2 agonistic ligands degrade EphA2 receptor. […] Total ERK1/2 blot was used as a loading control.\nFigure 5 Pharmacological inhibition of EphA2 expression partially impairs migration of pancreatic cancer cells. […] (c) Western blot of BxPC3 cell lysates after exposure for 5 min, 1 h or 24 h to indicated agents. (d) Representative images from treated wells at times 0 and 30 h. **, p < 0.005; ***, p < 0.001. Error bars represent standard deviation. […]"}, "EphA2 receptor [2]": {"system": "EphA2 receptor", "details": "monomeric agents; cited from earlier work", "from_the_text": "In order to evaluate the ability of each agent to activate the receptor, we tested them in various cellular assays as reported below. Because receptor activation causes its internalization and degradation, we opted to monitor the ability of each agent to reduce EphA2 levels over time, after exposure of cells to test ligands. […] First, we wanted to explore the effect of the linker length between the monomers and therefore tested side by sid ..."}, "WT-BxPC3 cells": {"system": "WT-BxPC3 cells", "experiment": "Scratch wound cell migration assay (IncuCyte S3), WT-BxPC3", "format": "cell-based", "from_the_text": "The monomeric, unbound EphA2 receptor is known to be pro-oncogenic, inducing cell migration of cancer cells, while ephrinA1-Fc, inducing EphA2 dimer formation can suppressed this activity. To more directly examine the effect EphA2 on pancreatic cancer cell migration we first prepared a stable BxPC3 EphA2 knockout (KO) cell line and monitored its migratory properties using the scratch wound method and live-cell analysis (IncuCyte S3, Sartorius) (Figure 4). Briefly, homogeneous scratch wounds on plated cells were created by a 96-pin mechanical device (WoundMaker, Sartorius, Göttingen, Germany). Subsequently, live-cell imaging was performed to monitor the rate of wound closure. As controls, we also tested wild-type (WT) BxPC3 cells, and each cell type was treated with ephrinA1-Fc, or Fc as control (Figure 4).\nCells were plated at 50 × 10^3 cells/well density in 96-well ImageLock plates (Sartorius). The following day, cells were scratched using the WoundMaker (Sartorius) and washed three times with PBS. Subsequently, cells were treated with the indicated compounds in RPMI-1640 complete media. […] Plates were imaged every two hours using IncuCyte S3 (Sartorius), and relative wound areas were analyzed using the algorithm of the imager cell migration software module."}, "EphA2-KO BxPC3 cells": {"system": "EphA2-KO BxPC3 cells", "experiment": "Scratch wound cell migration assay (IncuCyte S3), EphA2-KO BxPC3", "format": "cell-based", "details": "EphA2-KO BxPC3, ephrinA1-Fc versus Fc", "from_the_text": "The monomeric, unbound EphA2 receptor is known to be pro-oncogenic, inducing cell migration of cancer cells, while ephrinA1-Fc, inducing EphA2 dimer formation can suppressed this activity. To more directly examine the effect EphA2 on pancreatic cancer cell migration we first prepared a stable BxPC3 EphA2 knockout (KO) cell line and monitored its migratory properties using the scratch wound method and live-cell analysis (IncuCyte S3, Sartorius) (Figure 4). Briefly, homogeneous scratch wounds on plated cells were created by a 96-pin mechanical device (WoundMaker, Sartorius, Göttingen, Germany). Subsequently, live-cell imaging was performed to monitor the rate of wound closure. As controls, we also tested wild-type (WT) BxPC3 cells, and each cell type was treated with ephrinA1-Fc, or Fc as control (Figure 4). […]\nCells were plated at 50 × 10^3 cells/well density in 96-well ImageLock plates (Sartorius). […] Plates were imaged every two hours using IncuCyte S3 (Sartorius), and relative wound areas were analyzed using the algorithm of the imager cell migration software module."}, "EphA2 receptor [3]": {"system": "EphA2 receptor", "experiment": "EphA2 degradation, Western blot of HCT116 cell lysates", "format": "cell-based", "details": "HCT116 cells, ephrinA1-Fc 1 μg/mL, 2.5 h"}, "BxPC3 cells": {"system": "BxPC3 cells", "experiment": "Cell proliferation during migration study", "format": "cell-based", "details": "BxPC3, treatments of the migration assay", "from_the_text": "Subsequently, we probed the effect of the pharmacological inhibition of EphA2 by our dimeric agents on the migratory properties of WT-BxPC3 in a similar assay (Figure 5a). […] Of note is that cell proliferation was not affected by either treatment with ephrinA1-Fc or by our agents."}},
  "note": "Entries after “also recorded” stand apart in the source; their conditions may differ.",
  "data": [
    {"molecule": "COc1ccc(C[C@H](NC(=O)[C@H](C)NC(=O)[C@H](CC(C)C)NC(=O)c2oc3c(OC)c(OC)ccc3c2C)C(=O)N2CCC[C@H]2C(=O)N[C@@H](CC(=O)O)C(=O)N[C@@H](C)C(=O)N[C@H](C(=O)N2C[C@H](O)C[C@H]2C(=O)N[C@@H](Cc2ccc(Cl)cc2)C(=O)N[C@@H](CCCNC(=N)N)C(=O)N2CCC[C@H]2C(=O)NCC(=O)NCCCC[C@H](NC(=O)CNC(=O)[C@@H]2CCCN2C(=O)[C@H](CCCNC(=N)N)NC(=O)[C@H](Cc2ccc(Cl)cc2)NC(=O)[C@@H]2C[C@@H](O)CN2C(=O)[C@@H](NC(=O)[C@H](C)NC(=O)[C@H](CC(=O)O)NC(=O)[C@@H]2CCCN2C(=O)[C@H](Cc2ccc(OC)cc2)NC(=O)[C@H](C)NC(=O)[C@H](CC(C)C)NC(=O)c2oc3c(OC)c(OC)ccc3c2C)C(C)C)C(=O)N[C@@H](CCCCN)C(=O)NCCCC[C@H](NC(=O)[C@H](CCCCN)NC(=O)[C@H](CCCCNC(=O)CNC(=O)[C@@H]2CCCN2C(=O)[C@H](CCCNC(=N)N)NC(=O)[C@H](Cc2ccc(Cl)cc2)NC(=O)[C@@H]2C[C@@H](O)CN2C(=O)[C@@H](NC(=O)[C@H](C)NC(=O)[C@H](CC(=O)O)NC(=O)[C@@H]2CCCN2C(=O)[C@H](Cc2ccc(OC)cc2)NC(=O)[C@H](C)NC(=O)[C@H](CC(C)C)NC(=O)c2oc3c(OC)c(OC)ccc3c2C)C(C)C)NC(=O)CNC(=O)[C@@H]2CCCN2C(=O)[C@H](CCCNC(=N)N)NC(=O)[C@H](Cc2ccc(Cl)cc2)NC(=O)[C@@H]2C[C@@H](O)CN2C(=O)[C@@H](NC(=O)[C@H](C)NC(=O)[C@H](CC(=O)O)NC(=O)[C@@H]2CCCN2C(=O)[C@H](Cc2ccc(OC)cc2)NC(=O)[C@H](C)NC(=O)[C@H](CC(C)C)NC(=O)c2oc3c(OC)c(OC)ccc3c2C)C(C)C)C(N)=O)C(C)C)cc1", "note": "[135I1]", "values": [
      {"measurement": "EphA2 degradation", "setting": "EphA2 receptor [1]", "value": "not significantly more effective than its dimeric counterpart; also recorded: successfully degraded EphA2 receptor at nanomolar concentrations"}
    ]},
    {"molecule": "COc1ccc(C[C@H](NC(=O)[C@H](C)NC(=O)[C@H](CC(C)C)NC(=O)c2oc3c(OC)c(OC)ccc3c2C)C(=O)N2CCC[C@H]2C(=O)N[C@@H](CC(=O)O)C(=O)N[C@@H](C)C(=O)N[C@H](C(=O)N2C[C@H](O)C[C@H]2C(=O)N[C@@H](Cc2ccc(Cl)cc2)C(=O)N[C@@H](CCCNC(=N)N)C(=O)N2CCC[C@H]2C(N)=O)C(C)C)cc1", "note": "[135H11]", "values": [
      {"measurement": "concentration at which receptor activation was shown", "setting": "EphA2 receptor [2]", "value": "≥ 100", "unit": "µM"}
    ]},
    {"molecule": "B1", "values": [
      {"measurement": "cell migration, relative wound density at 36 h", "setting": "WT-BxPC3 cells; WT BxPC3, 1 μg/mL, versus Fc", "value": "WT cells treated with Fc migrated significantly faster than WT cells treated with ephrinA1-Fc"},
      {"measurement": "cell migration, relative wound density after 30 h", "setting": "WT-BxPC3 cells; WT-BxPC3, 1 µg/mL", "value": "significant decrease of cell migration"},
      {"measurement": "cell migration, rate of migration over 36 h", "setting": "EphA2-KO BxPC3 cells", "value": "did not significantly decrease the rate of migration"},
      {"measurement": "total EphA2 level (anti-EphA2 blot)", "setting": "EphA2 receptor [3]", "value": "very effective in causing EphA2 degradation; also recorded: complete degradation of the receptor"},
      {"measurement": "cell proliferation", "setting": "BxPC3 cells", "value": "not affected"}
    ]}
  ]
}
